# In paper PMC10279719 (Nature Communications, 2023):
# Non-standard residues stand in square brackets, D forms with d. pY = N[C@@H](Cc1ccc(OP(=O)(O)O)cc1)C(=O)O
# Assays:
# [1] = molecular target: the molecule itself; assay: SEC-MALS; Superdex 200 Increase 10/300 GL, 20 mM HEPES pH 7.5, 150 mM NaCl, 1 mM TCEP, 0.5 ml/min
# [2] = molecular target: T1, CrkII NSH3 domain (CrkII^NSH3, residues 134–191) (human, UniProt P46108-1 134-191); assay: SPR; Biacore S200; CrkII^NSH3 amine coupled to CM5, peptides injected; 20 °C, HBS-TP (20 mM HEPES pH 7.4, 150 mM NaCl, 1 mM TCEP, 0.005% Tween-P20); steady-state 1:1 fit; settings: both partners purified
# T1 construct: human CrkII residues 134-191, N-terminal SH3 domain
# [3] = molecular target: T1, CrkII NSH3 domain (CrkII^NSH3, residues …); assay: as above; settings: both partners purified; remark: listed apart in the source
# [4] = molecular target: T1, CrkII NSH3 domain (CrkII^NSH3, residues …); assay: ITC; ternary, sequential; CrkII^NSH3 (400 μM, syringe) titrated into the peptide (16.8 µM) left in the cell after a first titration with 14-3-3ɣ; 25 °C, 20 mM HEPES pH 7.4, 150 mM NaCl, 1 mM TCEP; settings: both partners purified
# [5] = molecular target: T2, full length CrkII, monomer (CrkII^FL monomer) (human, UniProt P46108-1 1-304, biotin (EZ-Link NHS-PEG4-Biotin, 1:1 molar ratio) where it was immobilised (a1)); assay: SPR; biotinylated adapter proteins captured with a biotin CAPture kit, pY peptides as analytes; Biacore 8K+, 20 °C, HBS-TP (20 mM HEPES pH 7.4, 150 mM NaCl, 1 mM TCEP, 0.005% Tween-P20) with 2% DMSO; 1 M NaCl regeneration; steady state, 1:1 model; settings: both partners purified
# T2 construct: full length human CrkII, printed as UniProt P46108-1, residues 1-330
# [6] = molecular target: T3, Grb2 SH2 domain (Grb2^SH2) (human, UniProt P62993-1 60-152, biotin (EZ-Link NHS-PEG4-Biotin, 1:1 molar ratio) where it was immobilised (a1)); assay: as above; settings: both partners purified
# T3 construct: SH2 domain of human Grb2; This construct is not in the list of the methods; the other adapter constructs were made in E. coli C41 (DE3) with an N-terminal His8 tag
# [7] = molecular target: T4, full length CrkII, dimer (CrkII^FL dimer) (human, UniProt P46108-1 1-304, biotin (EZ-Link NHS-PEG4-Biotin, 1:1 molar ratio) where it was immobilised (a1)); assay: as above; settings: both partners purified
# T4 construct: full length human CrkII, printed as UniProt P46108-1, residues 1-330
# [8] = molecular target: T5, CrkII SH2 domain (CrkII^SH2, residues 6-120) (human, UniProt P46108-1 6-120, biotin (EZ-Link NHS-PEG4-Biotin, 1:1 molar ratio) where it was immobilised (a1)); assay: as above; settings: both partners purified
# T5 construct: human CrkII SH2 domain, UniProt P46108-1, residues 6-120; The His tag is TEV-cleavable and was cleaved 'when required'
# [9] = molecular target: T6, full length Grb2 (Grb2^FL, residues 1-217) (human, UniProt P62993-1 1-217, biotin (EZ-Link NHS-PEG4-Biotin, 1:1 molar ratio) where it was immobilised (a1)); assay: as above; settings: both partners purified
# T6 construct: full length human Grb2, UniProt P62993-1, residues 1-217
binder,measurement,setting,value
"PEAK2IDR1 (PEAK2 residues 802-1406) (domain or fragment, human, UniProt Q86YV5 802-1406, looked up, phosphorylated at the tandem site 14-3-3 motif (RAASSP) by LC MS/MS, PEAK2 (SgK223, PRAG1), human, UniProt Q86YV5, residues 802-1406; Homodimer by SEC-MALS; TEV-cleavable tag) EDVSPSGPQQPPPLPQKKIVSRAASSPDGFFWTQGSPKPGTASPKLNLSHSETNVHDESHFSYSLSPGNRHHPVFSSSDPLEKAFKGSGHWLPAAGLAGNRGGCGSPGLQCKGAPSASSSQLSVSSQASTGSTQLQLHGLLSNISSKEGTYAKLGGLYTQSLARLVAKCEDLFMGGQKKELHFNENNWSLFKLTCNKPCCDSGDAIYYCATCSEDPGSTYAVKICKAPEPKTVSYCSPSVPVHFNIQQDCGHFVASVPSSMLSSPDAPKDPVPALPTHPPAQEQDCVVVITREVPHQTASDFVRDSAASHQAEPEAYERRVCFLLLQLCNGLEHLKEHGIIHRDLCLENLLLVHCTLQAGPGPAPAPAPAPAPAAAAPPCSSAAPPAGGTLSPAAGPASPEGPREKQLPRLIISNFLKAKQKPGGTPNLQQKKSQARLAPEIVSASQYRKFDEFQTGILIYELLHQPNPFEVRAQLRERDYRQEDLPPLPALSLYSPGLQQLAHLLLEADPIKRIRIGEAKRVLQCLLWGPRRELVQQPGTSEEALCGTLHNWIDMKRALMMMKFAEKAVDRRRGVELEDWLCCQYLASAEPGALLQSLKLLQLL",stoichiometry N,[1],2
"Ac-PLPPPLPKKILTR-NH2 (also called PEAK3 PRM peptide; source: synthetic peptide, bought: Mimotopes) [PEAK3^54–66 peptide (Ac-PLPPPLPKKILTR-NH2)]",Kd,[2],1.7 µM
"Ac-FSPPPPPPKSRHL-NH2 (human PEAK2 (SgK223, PRAG1) residues 709-721; also called second PRM of PEAK2; source: synthetic peptide, bought: Mimotopes) [PEAK2^709–721 peptide (Ac-FSPPPPPPKSRHL-NH2)]",Kd,[3],13 µM
"Ac-PLPPPLPKKILTRTQSLPTRR-NH2 (source: synthetic peptide, bought: Mimotopes) [PEAK3^tandem peptide, non-phosphorylated (residues 54–74; Ac-PLPPPLPKKILTRTQSLPTRR-NH2)]",Kd,[4],0.7 µM
"Ac-T[pY]SNLGQIRAHLLPSK-NH2 (SMILES CC[C@H](C)[C@H](NC(=O)[C@H](CCC(N)=O)NC(=O)CNC(=O)[C@H](CC(C)C)NC(=O)[C@H](CC(N)=O)NC(=O)[C@H](CO)NC(=O)[C@H](Cc1ccc(OP(=O)(O)O)cc1)NC(=O)[C@@H](NC(C)=O)[C@@H](C)O)C(=O)N[C@@H](CCCNC(=N)N)C(=O)N[C@@H](C)C(=O)N[C@@H](Cc1c[nH]cn1)C(=O)N[C@@H](CC(C)C)C(=O)N[C@@H](CC(C)C)C(=O)N1CCC[C@H]1C(=O)N[C@@H](CO)C(=O)N[C@@H](CCCCN)C(N)=O, source: synthetic peptide, bought: Mimotopes (95% purity)) [PEAK3 23-38-pY24 peptide (Ac-T(pY)SNLGQIRAHLLPSK-NH2)]",Kd,[5],6.8 µM
same,Kd,[6],4.2 µM
same,Kd,[7],6.2 µM
same,Kd,[8],5.3 µM
same,Kd,[9],2.2 µM
